Assay results as given in patent publication US20090036382A1, “TGF-Beta Modulators and Use Thereof” (Universita' Degli Studi Di Padova, priority 2006, published 2009).

How the values were obtained:
[1] = biological target: T1, Furin/SPC 1 (Homo sapiens, UniProt P09958); test: Western blot (anti-LAP) of pro TGF-β1 cleavage in HEK293T cells co-transfected with Furin/SPC 1; assay type: cell-based; conditions: HEK293T cell extracts, FIG. 5B
T1 construct: expressed in transfected cells; host or cells: HEK293T
Excerpt: To further investigate the role of emilin-1 on TGF-β processing, HEK293T cells were transfected with plasmids encoding pro TGF-β1, Furin/SPC 1 and EMI-domain, as shown in the scheme above FIG. 5B. Cell extracts were loaded on SDS-PAGE and detected by Western-blot with anti-LAP antibody.

[2] = test system: TGF-β3; test: Experiments in Xenopus on interaction of the EMI domain with TGF-β3
[3] = test system: pro TGF-β1; test: CAGA12-lux luciferase reporter in HEK293T cells co-transfected with pro TGF-β1 vector; assay type: cell-based, human; conditions: CAGA12-lux, co-transfection with pro TGF-β1 vector, FIG. 2B, 2C
Excerpt: • The construct for emilin 1 expression was engineered in pCS2 vector (Rupp R. A. et al., 1994, Genes Dev 8, 1311-1323) (for a physical map of the vector, see the site faculty.washington.edu/rtmoon/pcs2+.html) as described (Zanetti M. et al., 2004, Mol Cell Biol 24, 638-650); the vector used for proTGF-β expression in MEF and HEK293T cells is pCDNA3.1 (Invitrogen). Vectors containing the coding sequence for human pro TGF-β are described in Young and Murphy-Ullrich, 2004 (Young and Murphy-Ullrich, 2004, J Biol Chem 279, 38032-38039). The human pro TGF-β cDNA sequence is reported in the data bank (NP_000660; protein 000651). • The vector for Furin/SPC 1 expression is pCDNA3.1 (Invitrogen) • p15 and CAGA 12 promoter fragments are described in Jonk L. J. et al., 1998, J Biol Chem 273, 21145-21152 […]. • Constructs containing Flag sequences are described in Young G. D and Murphy-Ullrich J E, 2004, J Biol Chem 279, 38032-38039. • Constructs containing the Flag epitope (e.g. Flag-EMI-domain-GPI) were prepared as described in Chubet R G et al. Biotechniques 1996; 20(1):136-141 and detected by anti-Flag antibody (Kodak Inc.). • Constructs containing the GPI anchor were prepared as described in the Manual “Current Protocols in Cell Biology” Howard R. Petty Wayne State University, Detroit, Mich.; Juan S. Bonifacino, Mary Dasso, Joe B. Harford, Jennifer Lippincott-Schwartz, and Kenneth M. Yamada (eds.), Copyright C 2003 John Wiley & Sons, Inc. (GPI-anchor). In the construct Flag-EMI domain-GPI, the Flag sequence was inserted at the N-terminus after the signal peptide, while the GPI-anchor sequence was placed at the COOH-terminal end. • The construct emilin 1-KDEL was obtained by inserting the KDEL coding sequence described by Munro S., and Pelham, H. R., 1987, Cell 48, 899-907 upstream the emilin 1 STOP codon. • The construct containing the type II TGF-β receptor with HA epitope was described in Wrana J. L. et al., 1994, Nature 370, 341-347. • supplier of the drugs used: SP600125 (Calbiochem), SB431542 (Tocris). • Purified recombinant LAP and TGF-β1 proteins were purchased from (R&D Systems)
To verify how emilin or the EMI domain can contrast TGF-β1 activity independently from receptor binding, HEK293T cells were transfected with a construct coding luciferase placed under control of a TGF-β activated promoter: CAGA12-lux (Jonk et al., 1998) alone or in combination with a emilin1 expression vector (500 ng) as shown in FIG. 2B. After transfection, cells were treated (black bar) or not treated (white bar) with 5 ng/ml recombinant TGF-1 (lanes 1 and 2). Column bars from 3 to 6 report luciferase expression values in experiments with cells co-transfected with the expression vector for emilin1 (or EMI-domain or emilin1ΔEMI) alone (white bars) or in combination with the vector encoding pro TGF-β1 (black bars). Values show the mean±st. dev.
As further validation of the above observations, HEK293T cells were cotransfected with expression plasmids carrying the cDNAs shown in the summary scheme above the figure, along with CAGA12-lux and CMV-lacZ constructs, and luciferase expression levels were measured.

[4] = biological target: T2, TGFBRII (type II TGF-β receptor) (Homo sapiens, UniProt P37173); test: 125I TGF-β1 / TGFBRII cross-linking (DSS) and anti-HA immunoprecipitation in transfected HEK293T cells; assay type: binding; conditions: HEK293T transfected with TGFBRII-HA and Flag-EMI-domain-GPI; iodinated TGF-β1; FIG. 2A
T2 construct: expressed in transfected cells; host or cells: HEK293T
Description: Experiments were performed according to standard methods (Massague, 1987). Briefly, a solution of iodinated TGF-β1 (Amersham) was applied to HEK293T cells grown in 24 well plates and transfected with a plasmid carrying the sequence of TGFBRII (type II TGF-β receptor) fused to the HA epitope. After appropriate incubation and washing, the cell layer was exposed to a solution of DSS (disuccinimidyl suberate), a compound that favors formation of covalent cross-links between interacting molecules. The cell layer was extracted with immunoprecipitation buffer (RIPA-buffer) and subjected to the immunoprecipitation procedure with anti-HA antibody. The immunoprecipitate was solubilized with FSB (final sample buffer), separated by SDS-PAGE and radioactive complexes were detected by autoradiography. Molar excess of unlabeled TGF-β was used in parallel experiments. In other experiments, cells were simultaneously transfected with TGFBRII and with expression vectors driving expression of the emilin-1 EMI domain bound to GPI (glycosylphosphatidylinositol), a moiety which anchors the EMI domain to the cell membrane, that was tagged with the Flag epitope (Flag-EMI-domain-GPI).
Transfected cells, usually HEK293T, were incubated in Optimem (Invitrogen) for 24 hours prior to collection. […]

T2 sequence (P37173 23-567): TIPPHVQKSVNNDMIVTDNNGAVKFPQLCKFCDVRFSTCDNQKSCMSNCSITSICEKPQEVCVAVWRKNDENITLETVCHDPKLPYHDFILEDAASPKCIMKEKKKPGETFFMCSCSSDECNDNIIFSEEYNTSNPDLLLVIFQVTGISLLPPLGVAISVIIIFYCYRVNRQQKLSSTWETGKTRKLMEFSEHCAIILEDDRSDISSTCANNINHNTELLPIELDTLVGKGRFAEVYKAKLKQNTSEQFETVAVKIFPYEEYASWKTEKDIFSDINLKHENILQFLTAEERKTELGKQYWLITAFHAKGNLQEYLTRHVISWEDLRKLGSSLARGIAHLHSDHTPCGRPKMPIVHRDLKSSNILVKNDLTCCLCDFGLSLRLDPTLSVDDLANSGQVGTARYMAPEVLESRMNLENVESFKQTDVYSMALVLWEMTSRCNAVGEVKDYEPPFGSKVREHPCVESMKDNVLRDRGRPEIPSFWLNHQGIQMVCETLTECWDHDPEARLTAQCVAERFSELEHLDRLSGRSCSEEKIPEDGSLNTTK
T1 sequence (P09958 108-794): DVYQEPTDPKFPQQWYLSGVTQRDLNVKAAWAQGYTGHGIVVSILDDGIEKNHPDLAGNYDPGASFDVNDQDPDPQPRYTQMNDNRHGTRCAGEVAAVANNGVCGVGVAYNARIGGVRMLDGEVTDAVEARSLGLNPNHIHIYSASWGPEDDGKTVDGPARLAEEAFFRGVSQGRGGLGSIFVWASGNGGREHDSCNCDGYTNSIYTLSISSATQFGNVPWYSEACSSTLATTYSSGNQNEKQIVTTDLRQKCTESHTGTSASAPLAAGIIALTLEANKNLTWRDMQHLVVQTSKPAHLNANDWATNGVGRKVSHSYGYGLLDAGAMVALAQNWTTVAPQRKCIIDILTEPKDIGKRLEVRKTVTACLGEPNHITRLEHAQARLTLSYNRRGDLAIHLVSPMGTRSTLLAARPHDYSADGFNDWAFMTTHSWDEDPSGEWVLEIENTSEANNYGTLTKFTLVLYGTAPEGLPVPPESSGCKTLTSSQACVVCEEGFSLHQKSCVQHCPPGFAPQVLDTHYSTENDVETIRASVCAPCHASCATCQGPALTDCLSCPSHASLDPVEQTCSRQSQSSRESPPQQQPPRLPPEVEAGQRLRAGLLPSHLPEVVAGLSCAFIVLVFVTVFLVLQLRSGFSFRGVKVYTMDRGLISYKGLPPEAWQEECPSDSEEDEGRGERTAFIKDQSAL

B1: EMI domain: cysteine-rich domain of emilin-1, residues 55-131, SEQ ID NO 2; in some experiments Flag-tagged and GPI-anchored (protein)
chain: RHRNWCAYVVTRTVSCVLEDGVETYVKYQPCAWGQPQCPQSIMYRRFLRPRYRVAYKTVTDMEWRCCQGYGGDDCAE
modifications: sometimes Flag tag and GPI anchor; homo sapiens
notes: in some experiments Flag-tagged and GPI-anchored
Furin-induced proteolytic cleavage product of pro TGF-β1 [1]: blocks the effect of Furin
Interaction with TGF-β3 [2]: interaction
Effect on luciferase expression induced by pro TGF-β1 [3]: inhibits pro TGF-β
Competition with TGF-β for binding to TGFBRII (TGFBRII/TGF-β complex band) [4]: does non compete with TGF-β for binding to TGFBRII
